The values below come from patent US20090089894A1 (IOWA STATE UNIVERSITY RESEARCH FOUNDATION, published 2009).

This assay concerns the target T1, pB42AD-T, SV40 large T-antigen (87-708 aa) in the pB42AD vector (SV40, UniProt P03070 87-708).
T1 construct: range 87-708; positive control prey
In words: yeast two-hybrid positive control (FIG. 2).

T1 sequence (P03070 87-708 limits assumed): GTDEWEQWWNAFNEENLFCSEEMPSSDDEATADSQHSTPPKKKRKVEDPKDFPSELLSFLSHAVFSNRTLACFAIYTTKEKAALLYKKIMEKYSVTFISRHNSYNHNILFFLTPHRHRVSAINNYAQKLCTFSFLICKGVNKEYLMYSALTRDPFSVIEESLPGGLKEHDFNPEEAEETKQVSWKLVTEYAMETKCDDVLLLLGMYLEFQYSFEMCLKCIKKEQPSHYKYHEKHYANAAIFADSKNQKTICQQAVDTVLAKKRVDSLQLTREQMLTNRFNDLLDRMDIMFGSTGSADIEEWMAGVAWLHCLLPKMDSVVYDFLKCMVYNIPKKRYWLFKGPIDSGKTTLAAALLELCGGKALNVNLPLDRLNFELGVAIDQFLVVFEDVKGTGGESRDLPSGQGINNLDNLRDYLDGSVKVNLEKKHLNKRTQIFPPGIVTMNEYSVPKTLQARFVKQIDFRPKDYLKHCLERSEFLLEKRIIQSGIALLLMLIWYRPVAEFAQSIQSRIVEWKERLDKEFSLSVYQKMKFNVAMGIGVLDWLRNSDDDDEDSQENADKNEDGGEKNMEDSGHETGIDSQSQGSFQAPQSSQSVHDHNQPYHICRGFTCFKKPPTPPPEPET

B1: pLexA-53, murine p53 (72-390 aa) in the pLexA vector (other)
chain: PVTETPGPVAPAPATPWPLSSFVPSQKTYQGNYGFHLGFLQSGTAKSVMCTYSPPLNKLFCQLAKTCPVQLWVSATPPAGSRVRAMAIYKKSQHMTEVVRRCPHHERCSDGDGLAPPQHLIRVEGNLYPEYLEDRQTFRHSVVVPYEPPEAGSEYTTIHYKYMCNSSCMGGMNRRPILTIITLEDSSGNLLGRDSFEVRVCACPGRDRRTEEENFRKKEVLCPELPPGSAKRALPTCTSASPPQKKKPLDGEYFTLKIRGRKRFEMFRELNEALELKDAHATEESGDSRAHSSYLKTKKGQSTSRHKKTMVKKVGPDSD
notes: range 72-390; positive control bait
As to B1, the binding result is recorded as “binds”.
